Among the data in US20040063656A1 are tyrosine phosphorylation of VEGFR-3 (immunoprecipitation and anti-phosphotyrosine Western blot), 293T cells co-transfected with 75% of WT and 25% of mutant plasmid and tyrosine phosphorylation of VEGFR-3 (immunoprecipitation and anti-phosphotyrosine Western blot), wild type and mutant vectors co-transfected values, retold here.

In this test the target is wild type human VEGFR-3 (Flt4), long form (human) (UniProt P35916). The experiment in a line: cell-based or functional assay.
Sequence of UniProt P35916 (P35916 25-1363 limits assumed): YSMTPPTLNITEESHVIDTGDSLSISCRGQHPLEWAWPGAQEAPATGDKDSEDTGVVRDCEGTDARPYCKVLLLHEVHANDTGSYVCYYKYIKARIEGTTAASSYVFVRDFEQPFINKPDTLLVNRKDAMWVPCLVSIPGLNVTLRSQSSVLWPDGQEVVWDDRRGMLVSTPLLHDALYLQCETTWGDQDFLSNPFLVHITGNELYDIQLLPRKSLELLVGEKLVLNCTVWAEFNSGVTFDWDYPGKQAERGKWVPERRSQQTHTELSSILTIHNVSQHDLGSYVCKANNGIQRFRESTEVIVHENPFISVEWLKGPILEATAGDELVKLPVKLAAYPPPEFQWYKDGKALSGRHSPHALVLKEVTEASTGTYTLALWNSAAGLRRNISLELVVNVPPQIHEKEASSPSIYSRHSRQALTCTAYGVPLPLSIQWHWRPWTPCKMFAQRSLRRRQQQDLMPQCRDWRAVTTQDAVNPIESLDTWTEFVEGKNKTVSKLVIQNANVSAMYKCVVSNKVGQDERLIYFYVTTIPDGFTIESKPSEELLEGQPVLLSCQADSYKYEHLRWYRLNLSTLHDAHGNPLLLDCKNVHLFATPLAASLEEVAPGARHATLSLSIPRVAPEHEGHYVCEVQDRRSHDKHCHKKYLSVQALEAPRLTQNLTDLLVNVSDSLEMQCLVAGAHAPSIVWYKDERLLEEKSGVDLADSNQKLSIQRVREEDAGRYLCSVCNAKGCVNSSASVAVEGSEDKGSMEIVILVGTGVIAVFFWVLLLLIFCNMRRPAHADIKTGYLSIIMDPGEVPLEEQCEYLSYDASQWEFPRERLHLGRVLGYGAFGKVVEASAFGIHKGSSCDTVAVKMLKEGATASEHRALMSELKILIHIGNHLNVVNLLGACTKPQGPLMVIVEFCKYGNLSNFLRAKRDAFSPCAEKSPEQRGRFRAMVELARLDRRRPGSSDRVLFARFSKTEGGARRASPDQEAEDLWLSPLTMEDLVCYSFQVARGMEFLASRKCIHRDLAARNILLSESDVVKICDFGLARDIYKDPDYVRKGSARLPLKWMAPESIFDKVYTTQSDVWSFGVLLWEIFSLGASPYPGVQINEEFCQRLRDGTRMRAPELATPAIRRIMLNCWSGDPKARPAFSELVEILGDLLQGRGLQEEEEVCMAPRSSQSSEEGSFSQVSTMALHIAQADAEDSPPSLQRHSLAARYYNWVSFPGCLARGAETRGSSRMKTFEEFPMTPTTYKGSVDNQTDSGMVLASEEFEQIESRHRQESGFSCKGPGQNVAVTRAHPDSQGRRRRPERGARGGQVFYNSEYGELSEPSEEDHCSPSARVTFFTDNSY

In the case of “P1114L mutant of human VEGFR-3 (long form) (from UniProt P35916 25-1363) (receptor)”, the tyrosine phosphorylation of VEGFR-3 (immunoprecipitation and anti-phosphotyrosine Western blot), 293T cells co-transfected with 75% of WT and 25% of mutant plasmid was determined as 90 % decrease; the tyrosine phosphorylation of VEGFR-3 (immunoprecipitation and anti-phosphotyrosine Western blot), wild type and mutant vectors co-transfected at a 1:1 ratio (% of the wild type alone) stood at 4.
